Assay results as given in patent US9074238B2, “Methods for enhancing neprilysin activity and degrading amyloid-beta peptides and oligomers in a subject with Alzheimer's disease” (ACADEMIA SINICA, priority 2011, dated 2015).
“Also recorded” adds a separate entry of the source. Primed or numbered codes have the meaning given here. *: point of attachment. Alexa‑350 = fluorescent label on the Cys side chain (double-labeled qf-Aβ(1-7)C); Dabcyl′ = CN(C)c1ccc(/N=N/c2ccc(C(=O)*)cc2)cc1

How the values were obtained:
NEP = assay: Screening of compounds for NEP activity of SH-SY5Y cells with qf-Aβ(1-7)C substrate; format: cell-based, human; conditions: 5 μM compound, 24 hr; 2 μM qf-Aβ(1-7)C, 1 h
Method: The compound number is indicated on the left of each bar. […] (**, p value<0.001; *, p value<0.01).
Analogs comprising at least three hydroxyl groups attached to the two aromatic rings of the curcumin structure scaffold (Compound 1) were particularly active in enhancing NEP activity.
Human SH-SY5Y cells were cultured in the Dulbecco's modified Eagle's medium (DMEM, Gibco, USA) supplemented with 10% fetal bovine serum (FBS; Biological industries, USA) in 5% CO2 at 37° C. The cells were harvested and re-suspended in the phenol red-free DMEM medium supplemented with 10% FBS at a density of 1×10^6 cells/mL. 100 μL of cell culture was added in each well of a 96-well plate. The compounds (no. 1 to no. 24) were dissolved in DMSO, and the others (no. 25 and no. 26) were dissolved in sterilized water to make the stock solution (1 mM). Each compound was mixed with phenol red-free DMEM supplemented with 10% FBS to a final concentration of 10 μM. 100 μL of the medium containing 10 μM indicated compound was added into the wells to make the final compound concentration 5 μM. After incubation for 24 hr, the medium of the culture was replaced with the phenol red-free DMEM medium (not FBS) containing 2 μM qf-Aβ(1-7)C and incubation continued for additional 1 h. To measure the proteolytic activity, 100 μL of the medium was taken out for fluorescence measurement on SpectraMax Gemini EM (Molecular Devices, USA) with excitation at 346 nm and emission at 442 nm. The average of three replicate wells was used for each sample and control.

MMP-9 = molecular target: T1, MMP-9 (Homo sapiens, UniProt P14780); assay: Fluorogenic enzyme assay, peptide substrate digested by MMP-9; format: biochemical; conditions: 2 μM substrate, pH 7.5, 37° C.
T1 construct: purchased R&D Systems (USA)
Method: (§1) Recombinant human NEP (0.5 mg/mL), insulin-degrading enzyme (IDE) (0.386 mg/mL), endothelin-converting enzyme 1 (ECE-1) (0.298 mg/mL), matrix metalloproteinases (MMP)-3 (0.124 mg/mL) and MMP-9 (0.5 mg/mL), and angiotensin-converting enzyme (ACE) (0.434 mg/mL) were purchased from R&D Systems (USA). Human plasmin (1 mM) was purchased from Sigma (USA). […] MMP-3 and MMP-9 were pre-activated by incubation at 37° C. for 24 h with 1 mM p-aminophenylmercuric acetate. The quenched fluorogenic peptide substrate qf-Aβ(1-7)C (0.4 μL of the 1 mM stock in DMSO) was mixed with different concentrations of enzyme solution (final peptide concentration 2 μM) on a 96-well plate. The final volume of the reaction solution was kept as 200 μL. The mixture was incubated in the dark for 1, 2, 3, or 4 h at 37° C., and then the fluorescence was measured with excitation at 360 nm and emission at 465 nm on a Paradigm™ Detection Platform (Beckman Coulter, USA) (FIG. 5).

[1] = molecular target: T2, endothelin-converting enzyme 1 (ECE-1) (Homo sapiens, UniProt P42892); assay: Fluorogenic enzyme assay, peptide substrate digested by ECE-1; format: biochemical; conditions: 2 μM substrate, pH 7.5, 37° C.
T2 construct: purchased R&D Systems (USA)
T2 sequence (P42892 1-770): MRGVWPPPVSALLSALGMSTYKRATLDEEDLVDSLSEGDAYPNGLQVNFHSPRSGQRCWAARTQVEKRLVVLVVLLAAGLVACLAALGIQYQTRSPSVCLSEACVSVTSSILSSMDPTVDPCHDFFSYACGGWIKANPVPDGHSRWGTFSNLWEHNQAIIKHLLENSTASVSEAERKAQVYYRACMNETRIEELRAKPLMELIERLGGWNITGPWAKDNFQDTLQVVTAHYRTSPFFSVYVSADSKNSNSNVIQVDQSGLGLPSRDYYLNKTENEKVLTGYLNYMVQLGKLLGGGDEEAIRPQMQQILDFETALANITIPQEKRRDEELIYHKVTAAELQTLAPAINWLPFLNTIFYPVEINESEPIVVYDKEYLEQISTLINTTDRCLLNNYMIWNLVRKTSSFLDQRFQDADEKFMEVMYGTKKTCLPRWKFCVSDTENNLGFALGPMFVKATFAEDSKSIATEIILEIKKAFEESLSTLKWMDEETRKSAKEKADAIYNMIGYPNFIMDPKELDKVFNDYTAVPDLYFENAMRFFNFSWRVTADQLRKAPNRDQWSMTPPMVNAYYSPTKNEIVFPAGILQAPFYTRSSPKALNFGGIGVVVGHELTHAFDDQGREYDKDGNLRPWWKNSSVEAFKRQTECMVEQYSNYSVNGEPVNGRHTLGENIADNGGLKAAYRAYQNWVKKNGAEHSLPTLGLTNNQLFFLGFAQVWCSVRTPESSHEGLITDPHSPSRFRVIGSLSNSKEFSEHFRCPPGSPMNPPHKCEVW
Method: as §1

recombinant human NEP = molecular target: T3, recombinant human NEP (Homo sapiens, UniProt P08473); assay: Fluorogenic enzyme assay, peptide substrate digested by NEP; format: biochemical
T3 construct: purchased R&D Systems (USA)
Method: To determine the optimal reaction conditions, 0.92 nM NEP was mixed with different concentrations of qf-Aβ(1-7)C, then, after incubation for 1, 2, 3, or 4 h at 37° C., the peptide-degrading activity of NEP was measured by recording fluorescence emission at 465 nm. The fluorescence intensity increased at least 40-fold with the degradation of the quenched fluorogenic peptide. […] Incubation for 1 h was sufficient for detection. At higher substrate concentrations, the fluorescence intensity was much larger, but the error increased. To test whether the sensitivity of NEP detection was increased when a higher substrate concentration was used, 1.84 μM qf-Aβ(1-7)C was mixed with different concentrations of NEP and reacted at 37° C. for 1, 2, 3, or 4 h and the fluorescence emission at 465 nm measured (FIG. 4). […] The substrate concentration of 1.84 μM or more was therefore used in the following studies.
To determine the optimal substrate concentration in the fluorogenic enzyme assay, NEP (0.5 mg/mL) and substrate peptide qf-Aβ(1-7)C (1 mM) were mixed in 50 mM Tris-HCl (pH 7.5), 25 mM NaCl, 5 μM ZnCl2 to a final NEP concentration of 0.92 nM and peptide concentrations of 0.46, 0.92, 1.84, 3.68, or 7.36 μM and placed on a 96-well plate (Corning, USA). The final volume of the reaction solution was kept as 200 μL. The enzyme reaction was performed in the dark at 37° C. and the fluorescence was measured at 1, 2, 3, and 4 h with excitation at 360 nm and emission at 465 nm on a Paradigm™ Detection Platform (Beckman Coulter, USA) (FIG. 3). […] The enzyme reaction was performed in the dark at 37° C. and the fluorescence was measured at 1, 2, 3, and 4 h. […]
(§2) One commercially available quenched fluorogenic peptide substrate, Dansyl-^DAGF(pNO2)G, was tested for comparison. The fluorescence of dansyl is quenched by the presence of nitrophenyl group. Digestion was monitored by the fluorescence increase of dansyl at 562 nm when excited at 342 nm. […]

[2] = molecular target: T4, insulin-degrading enzyme (IDE) (Homo sapiens, UniProt P14735); assay: Fluorogenic enzyme assay, peptide substrate digested by IDE; format: biochemical
T4 construct: purchased R&D Systems (USA)
Method: as §1
The assay system was sensitive enough to detect as low as 0.10 nM NEP. […]
as §2

MMP-3 = molecular target: T5, MMP-3 (Homo sapiens, UniProt P08254); assay: Fluorogenic enzyme assay, peptide substrate digested by MMP-3; format: biochemical; conditions: 2 μM substrate
T5 construct: purchased R&D Systems (USA)
Method: as §1

Human plasmin = molecular target: T6, Human plasmin (Homo sapiens, UniProt P00747); assay: Fluorogenic enzyme assay, peptide substrate digested by plasmin; format: biochemical; conditions: 2 μM substrate
T6 construct: Human plasmin (1 mM) was purchased from Sigma (USA); purchased Sigma (USA)
Method: as §1

[3] = molecular target: T7, angiotensin-converting enzyme (ACE) (Homo sapiens, UniProt P12821); assay: Fluorogenic enzyme assay, peptide substrate digested by ACE; format: biochemical; conditions: 2 μM substrate
T7 construct: purchased R&D Systems (USA)
Method: as §1
One commercially available quenched fluorogenic peptide substrate, Dansyl-^DAGF(pNO2)G, was tested for comparison. The fluorescence of dansyl is quenched by the presence of nitrophenyl group. Digestion was monitored by the fluorescence increase of dansyl at 562 nm when excited at 342 nm. […] This substrate also has enzyme specificity. It is sensitive to NEP and ACE (FIG. 8B). […]

T3 sequence (P08473 whole entry): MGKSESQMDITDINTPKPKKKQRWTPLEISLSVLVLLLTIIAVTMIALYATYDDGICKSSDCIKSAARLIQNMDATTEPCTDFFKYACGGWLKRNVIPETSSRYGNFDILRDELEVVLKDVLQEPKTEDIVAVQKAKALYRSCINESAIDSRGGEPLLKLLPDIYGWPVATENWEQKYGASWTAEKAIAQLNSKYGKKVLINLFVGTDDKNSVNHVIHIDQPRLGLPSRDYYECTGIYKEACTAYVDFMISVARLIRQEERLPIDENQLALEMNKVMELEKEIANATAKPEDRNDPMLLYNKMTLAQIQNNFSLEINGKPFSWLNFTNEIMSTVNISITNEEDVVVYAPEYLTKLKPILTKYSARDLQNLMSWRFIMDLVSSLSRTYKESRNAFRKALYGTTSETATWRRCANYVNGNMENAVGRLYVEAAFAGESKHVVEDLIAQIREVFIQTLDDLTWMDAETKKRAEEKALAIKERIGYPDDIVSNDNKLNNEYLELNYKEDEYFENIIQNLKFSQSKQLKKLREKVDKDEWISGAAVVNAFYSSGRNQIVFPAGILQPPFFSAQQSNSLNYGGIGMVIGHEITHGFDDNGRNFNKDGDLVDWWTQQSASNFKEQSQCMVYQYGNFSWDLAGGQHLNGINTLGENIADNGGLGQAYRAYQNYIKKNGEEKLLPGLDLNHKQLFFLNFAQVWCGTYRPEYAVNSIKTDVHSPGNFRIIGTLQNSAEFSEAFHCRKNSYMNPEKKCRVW
T6 sequence (P00747 581-810 limits assumed): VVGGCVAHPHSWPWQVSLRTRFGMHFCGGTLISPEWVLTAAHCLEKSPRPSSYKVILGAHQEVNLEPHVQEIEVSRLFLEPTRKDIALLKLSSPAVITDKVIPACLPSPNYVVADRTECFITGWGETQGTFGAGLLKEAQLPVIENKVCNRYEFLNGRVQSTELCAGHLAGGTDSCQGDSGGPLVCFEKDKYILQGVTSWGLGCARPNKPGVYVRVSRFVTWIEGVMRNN
T6 sequence (P00747 97-580 partner limits assumed): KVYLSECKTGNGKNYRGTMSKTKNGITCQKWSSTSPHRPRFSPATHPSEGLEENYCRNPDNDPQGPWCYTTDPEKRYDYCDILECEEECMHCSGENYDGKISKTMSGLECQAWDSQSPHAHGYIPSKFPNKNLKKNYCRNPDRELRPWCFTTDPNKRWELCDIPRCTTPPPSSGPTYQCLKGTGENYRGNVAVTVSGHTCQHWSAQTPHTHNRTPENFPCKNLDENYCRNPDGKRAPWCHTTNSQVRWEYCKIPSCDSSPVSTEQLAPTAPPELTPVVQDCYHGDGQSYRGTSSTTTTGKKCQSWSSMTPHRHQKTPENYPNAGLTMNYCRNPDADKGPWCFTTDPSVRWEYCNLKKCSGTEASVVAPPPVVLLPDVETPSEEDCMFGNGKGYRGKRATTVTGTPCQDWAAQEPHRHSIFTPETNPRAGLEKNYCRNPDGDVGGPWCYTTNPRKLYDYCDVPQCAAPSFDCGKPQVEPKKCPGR
T1 sequence (P14780 107-707 limits assumed): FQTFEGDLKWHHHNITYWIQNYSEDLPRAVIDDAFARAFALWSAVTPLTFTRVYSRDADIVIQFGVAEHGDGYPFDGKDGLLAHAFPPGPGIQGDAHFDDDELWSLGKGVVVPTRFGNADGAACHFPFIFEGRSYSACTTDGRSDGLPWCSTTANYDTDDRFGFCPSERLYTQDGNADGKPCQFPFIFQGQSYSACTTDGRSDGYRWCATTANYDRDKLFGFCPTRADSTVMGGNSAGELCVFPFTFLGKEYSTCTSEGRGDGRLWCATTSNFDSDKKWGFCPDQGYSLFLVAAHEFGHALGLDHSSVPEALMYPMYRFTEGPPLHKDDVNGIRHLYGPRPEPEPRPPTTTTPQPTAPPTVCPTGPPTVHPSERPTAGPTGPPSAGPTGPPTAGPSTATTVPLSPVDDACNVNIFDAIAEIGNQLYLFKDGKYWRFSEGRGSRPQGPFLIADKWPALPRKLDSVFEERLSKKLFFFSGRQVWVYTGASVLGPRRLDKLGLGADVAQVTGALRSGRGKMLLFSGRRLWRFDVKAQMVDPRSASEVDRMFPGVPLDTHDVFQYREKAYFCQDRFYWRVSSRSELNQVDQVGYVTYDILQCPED
T5 sequence (P08254 100-477): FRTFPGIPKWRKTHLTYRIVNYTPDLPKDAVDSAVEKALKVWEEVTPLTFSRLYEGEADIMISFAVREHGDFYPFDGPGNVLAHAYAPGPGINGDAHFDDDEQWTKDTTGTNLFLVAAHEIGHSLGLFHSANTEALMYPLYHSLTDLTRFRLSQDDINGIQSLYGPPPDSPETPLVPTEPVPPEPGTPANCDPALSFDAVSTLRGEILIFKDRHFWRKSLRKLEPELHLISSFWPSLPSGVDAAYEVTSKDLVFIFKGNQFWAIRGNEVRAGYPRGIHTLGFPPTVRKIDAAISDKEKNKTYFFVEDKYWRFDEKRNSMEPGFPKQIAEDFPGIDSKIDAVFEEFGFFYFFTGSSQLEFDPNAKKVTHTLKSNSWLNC
T7 sequence (P12821 30-1306): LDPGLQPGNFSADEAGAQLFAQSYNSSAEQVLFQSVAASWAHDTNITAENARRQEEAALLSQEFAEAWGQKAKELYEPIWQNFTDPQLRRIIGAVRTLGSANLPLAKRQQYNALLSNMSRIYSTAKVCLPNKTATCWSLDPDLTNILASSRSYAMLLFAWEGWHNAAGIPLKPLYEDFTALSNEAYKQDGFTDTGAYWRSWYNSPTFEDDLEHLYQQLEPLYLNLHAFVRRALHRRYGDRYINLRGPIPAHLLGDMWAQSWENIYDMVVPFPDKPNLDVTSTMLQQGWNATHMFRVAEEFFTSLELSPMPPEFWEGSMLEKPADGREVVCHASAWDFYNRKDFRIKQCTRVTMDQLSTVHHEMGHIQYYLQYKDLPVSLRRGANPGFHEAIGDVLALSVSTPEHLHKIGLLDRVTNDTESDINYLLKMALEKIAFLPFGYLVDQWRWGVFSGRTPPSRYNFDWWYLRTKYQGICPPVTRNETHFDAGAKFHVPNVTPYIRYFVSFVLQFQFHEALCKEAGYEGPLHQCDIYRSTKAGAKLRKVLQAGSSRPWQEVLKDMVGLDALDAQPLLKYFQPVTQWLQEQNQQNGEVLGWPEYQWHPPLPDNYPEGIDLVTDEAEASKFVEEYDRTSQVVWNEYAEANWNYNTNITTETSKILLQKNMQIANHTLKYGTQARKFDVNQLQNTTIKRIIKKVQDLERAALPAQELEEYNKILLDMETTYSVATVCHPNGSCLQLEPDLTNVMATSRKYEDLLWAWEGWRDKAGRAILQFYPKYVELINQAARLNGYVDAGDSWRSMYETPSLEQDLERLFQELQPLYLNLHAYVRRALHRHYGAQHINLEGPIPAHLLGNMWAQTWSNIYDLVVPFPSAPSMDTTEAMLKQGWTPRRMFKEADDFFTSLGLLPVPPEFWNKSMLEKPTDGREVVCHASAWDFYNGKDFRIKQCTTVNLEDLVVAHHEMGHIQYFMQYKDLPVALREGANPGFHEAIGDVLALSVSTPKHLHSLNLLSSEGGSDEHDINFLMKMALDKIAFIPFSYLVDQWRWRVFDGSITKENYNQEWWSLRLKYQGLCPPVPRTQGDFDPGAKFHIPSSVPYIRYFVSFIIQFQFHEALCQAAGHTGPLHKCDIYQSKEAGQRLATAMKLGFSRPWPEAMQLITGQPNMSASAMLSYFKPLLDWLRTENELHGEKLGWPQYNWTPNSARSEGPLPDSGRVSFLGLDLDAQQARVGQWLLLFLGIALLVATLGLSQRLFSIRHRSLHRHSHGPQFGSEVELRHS

## COc1cc(C=CC(=O)CC(=O)C=Cc2cc(O)c(O)c(OC)c2)cc(O)c1O [Compound 10, 1,7-Bis(3,4-dihydroxy-5-methoxyphenyl)-1,6-heptadiene-3,5-dione]
NEP
  NEP activity of human SHSY5Y cells treated with compound (effect in words): largely enhanced NEP activity; also recorded: large enhancements of NEP activity

## COc1ccc2ccccc2c1C=CC(=O)CC(=O)C=Cc1c(OC)ccc2ccccc12 [Compound 14, 1,7-Bis(2-methoxy-1-naphthyl)-1,6-heptadiene-3,5-dione]
NEP
  NEP activity of human SHSY5Y cells treated with compound (effect in words): decreased NEP activity
  decrease of NEP activity: ~20%

## COc1cc(C=CC(=O)CC(=O)C=Cc2ccc(O)c(O)c2)ccc1O [Compound 7, 1-(3,4-Dihydroxyphenyl)-7-(3-methoxy-4-hydroxyphenyl)-1,6-heptadiene-3,5-dione]
NEP
  NEP activity of human SHSY5Y cells treated with compound (effect in words): largely enhanced NEP activity; also recorded: large enhancements of NEP activity

## qf-Aβ(1-7)C: Peptide DAEFRHDC, Aβ residues 1-7 plus C-terminal Cys, with Alexa-350 on the Cys side-chain and Dabcyl quencher at the N-terminus ({Dabcyl′}-DAEFRHDC(Alexa‑350)-OH)
MMP-9
  sensitivity of the system to MMP-9: insensitive; also recorded: much less sensitive
[1]
  sensitivity of the system to ECE-1: insensitive; also recorded: much less sensitive
Recombinant human NEP; 0.92 nM NEP, 37° C.
  lowest substrate concentration at which 0.92 nM NEP could be detected: 0.46 µM
Recombinant human NEP; 0.92 nM NEP, 37° C., emission at 465 nm
  fluorescence intensity increase with degradation of the quenched fluorogenic peptide: at least 40 fold
Recombinant human NEP; 2 μM substrate, pH 7.5, 37° C.
  cleavage of the quenched fluorogenic peptide by NEP: effective
[2]; 2 μM substrate, pH 7.5, 37° C.
  cleavage of the quenched fluorogenic peptide by IDE: effective
[2]; 37° C., 1 h
  lowest IDE concentration detected: 0.2 nM
MMP-3; 1-h digestion
  fluorescence increase after digestion with MMP-3: no significant fluorescence increase
MMP-3; 3 h
  fluorescence increase after incubation with MMP-3: very weak fluorescence increase
Human plasmin; 1-h digestion
  fluorescence increase after digestion with plasmin: no significant fluorescence increase
Human plasmin; pH 7.5, 37° C.
  sensitivity of the system to plasmin: much less sensitive
[3]; 1-h digestion
  fluorescence increase after digestion with ACE: no significant fluorescence increase
[3]; 3 h
  fluorescence increase after incubation with ACE: very weak fluorescence increase

## O=C(C=Cc1ccc(O)cc1)CC(=O)C=Cc1ccc(O)c(O)c1 [Compound 20, 1-(3,4-dihydroxyphenyl)-7-(4-hydroxyphenyl)-1,6-heptadiene-3,5-dione]
NEP
  NEP activity of human SHSY5Y cells treated with compound (effect in words): largely enhanced NEP activity; also recorded: large enhancements of NEP activity

## O=C(C=Cc1ccc(O)c(O)c1)CC(=O)C=Cc1ccc(O)c(O)c1 [Compound 8, 1,7-Bis(3,4-dihydroxyphenyl)-1,6-heptadiene-3,5-dione]
NEP
  NEP activity of human SHSY5Y cells treated with compound (effect in words): largely enhanced NEP activity; also recorded: large enhancements of NEP activity
